In assay [1] the target is Fc-tagged human IL-2 receptor subunit alpha, extracellular domain (hIL-2 Ra-Fc) (human) (UniProt P01589).
Assay [2] deals with Fc-tagged human IL-2 receptor beta subunit extracellular domain (hIL-2 Rb-Fc) (human) (UniProt P14784).
Assay [3] concerns the target Fc-tagged human IL-2 receptor alpha subunit extracellular domain (hIL-2 Ra-Fc) (human) (UniProt P01589).

Chain of UniProt P14784 (P14784 27-240): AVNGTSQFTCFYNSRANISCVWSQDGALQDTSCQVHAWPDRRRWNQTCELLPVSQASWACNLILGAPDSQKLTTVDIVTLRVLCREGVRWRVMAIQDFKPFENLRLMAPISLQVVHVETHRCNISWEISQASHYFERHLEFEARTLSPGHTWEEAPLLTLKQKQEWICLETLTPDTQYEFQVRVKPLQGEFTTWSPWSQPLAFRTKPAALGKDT

In the case of “IL-2 P65 AzK (replacement of proline 65 with AzK, without PEG attachment) (from UniProt P60568 21-153) (ligand)”, the potency (EC50) of pSTAT5 induction in Treg cells of human PBMC, PEG size study in assay [1] came out at 5450 pg/mL.
On to “IL-2 with E62 replaced with AzK, pegylated with 10 kDa mPEG (from UniProt P60568 21-153) (ligand)”, for which the Supplementary Table 1: βγ EC50 (nM), DiscoverX PathHunter IL-2 receptor βγ assay; row E62 in assay [2] was 3 nM.
Take “IL-2 with E62 replaced with AzK, pegylated with 30 kDa mPEG (from UniProt P60568 21-153) (ligand)”: the Supplementary Table 1: αβγ EC50 (nM), DiscoverX PathHunter IL-2 receptor αβγ assay; row E62* in assay [3] turned out to be 2.84 nM. In assay [2], this substance registered a Supplementary Table 1: βγ EC50 (nM), DiscoverX PathHunter IL-2 receptor βγ assay; row E62* of 7.46 nM.
“IL-2 with E68 replaced with AzK, pegylated with 30 kDa mPEG (from UniProt P60568 21-153) (ligand)”: in assay [3], the Supplementary Table 1: αβγ EC50 (nM), DiscoverX PathHunter IL-2 receptor αβγ assay; row E68* was 0.09 nM. Further, in assay [2], the Supplementary Table 1: βγ EC50 (nM), DiscoverX PathHunter IL-2 receptor βγ assay; row E68* was 7.7 nM.
For “IL-2 with F42 replaced with AzK, pegylated with 10 kDa mPEG (from UniProt P60568 21-153) (ligand)”, in assay [3], the Supplementary Table 1: αβγ EC50 (nM), DiscoverX PathHunter IL-2 receptor αβγ assay; row F42 came to 0.52 nM. Also, in assay [2], the Supplementary Table 1: βγ EC50 (nM), DiscoverX PathHunter IL-2 receptor βγ assay; row F42 is 6.09 nM.
Consider “IL-2 with K35 replaced with AzK, pegylated with 10 kDa mPEG (from UniProt P60568 21-153) (ligand)”, for which the Supplementary Table 1: βγ EC50 (nM), DiscoverX PathHunter IL-2 receptor βγ assay; row K35 in assay [2] is 6.75 nM.
On to “IL-2 with K43 replaced with AzK, pegylated with 10 kDa mPEG (from UniProt P60568 21-153) (ligand)”, for which the Supplementary Table 1: αβγ EC50 (nM), DiscoverX PathHunter IL-2 receptor αβγ assay; row K43 in assay [3] came out at 0.13 nM. Besides, in assay [2], the Supplementary Table 1: βγ EC50 (nM), DiscoverX PathHunter IL-2 receptor βγ assay; row K43 came to 9.84 nM.
“IL-2 with R38 replaced with AzK, pegylated with 10 kDa mPEG (from UniProt P60568 21-153) (ligand)”: in assay [3], the Supplementary Table 1: αβγ EC50 (nM), DiscoverX PathHunter IL-2 receptor αβγ assay; row R38 came out at 0.17 nM. This substance had a Supplementary Table 1: βγ EC50 (nM), DiscoverX PathHunter IL-2 receptor βγ assay; row R38 in assay [2] of 4.16 nM.
In assay [3], “IL-2 with T41 replaced with AzK, pegylated with 10 kDa mPEG (from UniProt P60568 21-153) (ligand)” gave a Supplementary Table 1: αβγ EC50 (nM), DiscoverX PathHunter IL-2 receptor αβγ assay; row T41 of 0.05 nM. The substance further displayed a Supplementary Table 1: βγ EC50 (nM), DiscoverX PathHunter IL-2 receptor βγ assay; row T41 in assay [2] of 6.37 nM.
Substance “IL-2 with V69 replaced with AzK, pegylated with 30 kDa mPEG (from UniProt P60568 21-153) (ligand)” displayed a Supplementary Table 1: αβγ EC50 (nM), DiscoverX PathHunter IL-2 receptor αβγ assay; row V69* in assay [3] of 0.08 nM. Besides, in assay [2], the Supplementary Table 1: βγ EC50 (nM), DiscoverX PathHunter IL-2 receptor βγ assay; row V69* was determined as 9.99 nM.
Substance “IL-2 with Y45 replaced with AzK, pegylated with 10 kDa mPEG (from UniProt P60568 21-153) (ligand)” yielded a Supplementary Table 1: αβγ EC50 (nM), DiscoverX PathHunter IL-2 receptor αβγ assay; row Y45 in assay [3] of 0.11 nM. Besides, the Supplementary Table 1: βγ EC50 (nM), DiscoverX PathHunter IL-2 receptor βγ assay; row Y45 in assay [2] was determined as 9.06 nM.
